This data set in a line: soluble on expression in E. coli; label from the status in PepcDB or PDB records.
For the sequence “MSLGKYFGTDGVRGEANVELTPELAFKLGRFGGYVLSQHEPDRPRVFVARDTRISGELLESALVAGLLSVGIEVYKLGVLATPGVSYLVRTEQASAGVMISASHNPALDNGIKFFGGDGFKLADEQEAEIEALLDAKEDDLPRPSAQGLGMVVDYPEGLRKYEKFLVSTGSDLEGMKIAIDAANGAASYSARQVFLDLNADITVIGEEPDGLNINDGVGSTHPEQLQNLVKGSDFVIGLAFDGDSDRLIAVDENGEIVDGDKIMYIIGKYLSEKGRLSKNTIVTTVMSNLGFHKALDRENINKKITAVGDRYVVEEMRRSGYNLGGEQSGHVIIMDYNTTGDGQLTAIQLTKVMKETGKTLSELANEVTIYPQKLVNIYVKNDMKNKAMEVPMIAQIIEKMEAEMAGNGRILVRPSGTEPLLRVMAEAPSTEEVNYYVDTIAKVVKTEIGIEGHHHHHH”, the “soluble on expression in E. coli” value is “soluble”.

On to “MLSTVFLLATLAASAAADGYSCARNTLINPPQDLSKPYYYPETWRENMEPPQYAPNQKCNWKINVPQGMYATVIFYKKTKYEIGIQCAYPGKDLEYINDYEQSPYIFTSPQFQVDLKVGDKPGAFSFKVVWSKYPPGSAMNIELDGIHSISGVASSFYTTYTAINQVMIVGFSVPDVDTNLLRQSAIYDGDSVNAKFLGNLFDALEGQIVSTGNKLTIYTFGLENQVDNTLFMGLDTKAAGDIEQYTGLNCPVDRTRGCSIILHSYFYATAEARISRQPDYLMLPDSFPYNATLKIYGETLQDSSLFAAVNKSNYQTMFPMKVTNSLKIYHLDHDIVSIDVTNNADEAKWSTVYDGRNIKVQSMDYGRTSFYQDTMETFTTEPNTQMYFKFNVKYFDVNGPTSLAIKVYNNAKIVYSETYTATNLPTPYNVRVYGDKMDINYQTFGNYTQGFEVNIVTTKNG”, for which the “soluble on expression in E. coli” value is on record as “not soluble”.

With “MKEIWLLAESESWDEAKEMLKDAIEIGFDGALVRRDFLERAEKLGRMKIVPIEDAVVKISSAEDQERALQREVVVLKFEDWKVIPLENIVAMKKSGKVIAAVDTIEDAKLALTTLERGADGIAVSGDRETLRKFYEVVKEEGERVELVRARVKEIRPLGVGERVCIDTVTLMTPGEGMLVGNQASFMFLVASESEESEYVASRPFRVNAGSVNAYLKVGDKTRYLAELKAGDEVEVVKFDGAVRKSYVGRVKIERRPLILIRAEVDGVEGSVILQNAETIKLVAPDGKHVSVAELKPGDEILVWLGKKARHFGVEVDEFIVER”, the “soluble on expression in E. coli” value was “not soluble”.

Regarding “MAVDAVNSAAANPWANAGASSSDKNAASLNYDSFLKLLIAQMKNQDPTSPMDAGQQMSQLASFSQVEQTIKTNTHLKSMLQAEALTRASDLVGKTVMSADDKVTGVVKEVQVFSDGIVAVTEAGDKVLLQAGVVFSNGPITTKSDETTADSNNSAGS”, the “soluble on expression in E. coli” value is listed as “not soluble”.

Turning to “MGSDKIHHHHHHMEIVLAKRAGFCFGVKRATQMAFEAAEKEGETFTLGPIIHSPQVVQRLEGMGVKVLSDLEGIGNGTVIIRSHGVTSAELEDAVRRQLEVVDATCPFVKKAQEHVKRLSHDGYTVVVVGDADHPEVQGIVSYAEGPVHVVGSGEEAARLPNMKKVGVVAQTTQSFETLKNVVKECLLKGGEIRVFNTICDATAVRQDEAKALAREVDCMIVIGGFNSANTKRLAEVCSELQPRTYHIETAQELDASWFQGVERVGVTAGASTPKWLIDEVIERIQEFDNKKKG”, the “soluble on expression in E. coli” value is given as “not soluble”.

Take “MGSDKIHHHHHHMLIKTVLNKFERFKSFIYGDCRLAKVGGSEALVIDIKARRNSKPECPECGKRGKTYDTQPARLFEYVPIWAFKVFFRYAPRRVLCPIHGVKVESLPWGYGKEQMTISYQVYLARWARRLSWKEVAEIFKTSWDSIFRAVQYAVDYGLANRNLDGVTEIGVDEIAVFKGHQYLTMVYQLNAGVRRLLWCGPQRRIRTLLRFFREFGKERSAKLKYVCSDMWAPYLKVIAKRAPNAVNILDRFHIMRKFNEAIDEVRRTEAKEFKAAKQENVLEKGRWLLLKRPENLSEKQTSRLGDLLKLNLSSIKAYLLREDFQQFWDYQRSDFAGKFLDDWVIRTMQTDLEPMKKVARMLRNHKPMILNWFKAKGRLSSGAVEGLNLKAKLTIRKAYGFRTIKCLQVALYHTLGDLPEPLCHHRFC”: the “soluble on expression in E. coli” value is on record as “not soluble”.

On to “MSFLNNDFGSPPATSSPPTTMPKLPTIQDMLNNIGASTVNLMQPNPYLMQNQIPLPVPNLPLNPFLHLNPAISQEIIQQFIAMSFNTPNVLASIANMGDDEGPSCNPKMRRGDLLKSVSMDSTEDPPSITLDNNGDMIVPNNDKEGWCRNKKYIEQTENGYMCTVCRKVYGRYNSVSYHVTIYHRNPPIKCNVPNCQFTTREARYIHFHKNYRHGIPLPESIDQGSRKCPHCRHVSKSPAMLEKHIRRHQIKDGLSNINEAIRERTSTICDEAMEIEPAETEVDPIETKPRSCTL”, for which the “soluble on expression in E. coli” value is reported as “not soluble”.

Turning to “MDTFRVFSLFAGISINNSHLLEFAVKAGREVMELNEHRATLFNKNVPSRGVKRVTAITNREREAVLRIEFPNVDVTDIDFDLFQARESTDKPLDVAAAIAYRLLLGSGLPQKFGCSDEVLLNFILQCRKKYRNVPYHNFYHVVDVCQTIYTFLYRGNVYEKLTELECFVLLITALVHDLDHMGLNNSFYLKTESPLGILSSASGNKSVLEVHHCNLAVEILSDPESDVFGGLEGAERTLAFRSMIDCVLATDMARHSEFLEKYLEIMKTSYNVDDSDHRQMTMDVLMKAGDISNVTKPFDVSRQWAMAVTEEFYRQGDMEKERGVEVLPMFDRSKNMELAKGQIGFIDFVAAPFFQKIVDACLQGMQWTVDRTKSNRAQWERVLEARSTG”, the “soluble on expression in E. coli” value is recorded as “not soluble”.

Consider “MSLENNKAKMNEKEEIIFNSIRKNPYISQQELADILDLSRPTVANLISGLIKKGRILGKAYILNEAKQIVCIGGANVDRKFYIKDKAQLATSNPVRSTQSAGGVARNVGENLGRLGKEVILLTACGTDSDWEAVKNASNTYMNLDYVTAFPSIATGSYTAVLENNGDLLVALADMDAYDHLTPDVLAKNEGLLSQASAIIADLNCPKETLEYLGSFAEINSIPLVLVPVSSPKMSHLPERLDHVTWLICNRDESETHLEMTIENDEDWRLAAQKWLDLGVKNVIVTNGSKGAVAANNAEGIIFEPAIVIENIVDVTGAGDAFCSAVIYAWLEGKSLQEILKAGSVNAARTLESEYTVRQNLSTSQLQKDLEEFKEGHHHHHH”, for which the “soluble on expression in E. coli” value is on record as “soluble”.

For “MSLGNNLKKKNGADSLYYTTRTFATTKEVIQANKFVNSEKLNEIAKKTDCTYLKSPAGIFTQATLPINKIYEELSHDTINAVKLTFNSYNQPDNGKFSMKAPTYVLLLREKERQSFFEENKLTDNITSYLAVHNAIISNKPTTNQYVFTNLTRLINACVNEKQEAKKKAGDSWNEAAWEAANPDWNKVVLIPVLVQYDSSSNKNMISIQHDLQPGYVKLEGGPDGTKLKLEVTYTNFNGKEGHHHHHH”, the “soluble on expression in E. coli” value was “soluble”.

As for “MAHHHHHHMIAAIKTPAFQERVRAAMSREPTPADAEAVMKRYEEVQADYFTNHYNAEAGGICSSASAGAESRGTGGAGGRAKSSQDASEALAQQVDDMNLQEASDAPKLDGVEIVEQLKNAVRVYKEKETVRLITELCLLIESQVTALPATVPALRHLYSNSVYGSSAMEHAQAASAQAGGGESVLPVAQPSPQVMSMMGMAMRTLNPRQRETLERVQRAMMNGSPPLPEDMQDMLLIQRQLGAFMQTMQRFGQMPSGRGCGSGGRGGCGGQGGQ”, the “soluble on expression in E. coli” value is given as “soluble”.

Take “MGSDKIHHHHHHMRLLFRKAGEFFRDFVSIFKHISDDLEMYLKLDPAAESKLQVFFFYASFQGLMWYRFAHFFYKWKLKVLAYLIYYFVRVVFSMDIHPAARIAPGVVIDHGIGVVIGSTASVGRGTLIYHGVTLGTRKPCSGKRHPDVGENVMIGTGAKILGPIRVGNNAVVGANAVVLEDVPDGAVVVGVPARIVKWRRDFCDDGKTDREHSYSETRFDRLENLLETGKE”: the “soluble on expression in E. coli” value is “not soluble”.

As to “SLKNSESHGEADGGLRERKKRETKKRLTEKGIALFLERGFDNTTLDEIASAAGISRRTFFYYFKSKDEILLSLQSGIGEMLADAVRRAPSSSTPIEVVRDAAIGVCKVIPTNDMIEMDRLMRTSPSVQARKQVSYVQQEGEIYEALSERWPEPERSTALRVVAMLSVGAMRIAGDIFSQEKGVRPMVDLLEEAFGSLIQEVRSGDPRV”, the “soluble on expression in E. coli” value was “soluble”.

The values above are taken from the DeepSol protein solubility set.
